Measurements published in patent US20250115656A1 (Stanford University, published 2025).

Target: the molecule itself
Assay: cryo-EM in detergent; HS-AFM in lipid bilayer
Description: Briefly, for reconstituted lipids, we used a mixture of phospholipids, asolectin from soybean (Sigma-Aldrich, No. 11145). Asolectin (120 μg) was dissolved in chloroform and then evaporated under N2 gas to completely remove the solvent. Then, the lipids were suspended in 50 μL buffer A (20 mM HEPES-KOH pH 7.4, 100 mM NaCl, and 4% DDM) and sonicated for ˜1 min with a tip-sonicator. Next, dissolved membrane proteins (1 nmol) and MSP (50 μL, 1 mg/mL) (MSP1E3D1, Sigma-Aldrich, No. M7074) were added to the lipid suspension and mixed for ˜1 h while rotating in the dark at 4° C. Finally, we added 60 mg Bio-beads SM-2 (Bio-Rad, Hercules, CA, USA, No. 1523920) and dialyzed the samples in detergent overnight at 4° C. According to the manufacturer's protocol, nanodisc samples should be fractionated on a column to purify the nanodiscs based on size (˜10 nm in diameter).
A homemade HS-AFM operated in tapping mode was used (Shibata et al., 2017, 2018). An optical beam deflection detector detected the cantilever (Olympus, Tokyo, Japan: BL-AC10DS-A2) deflection using an infrared (IR) laser at 780 nm and 0.7 mW. The IR beam was focused onto the back side of the cantilever covered with a gold film through a ×60 objective lens (Nikon, Tokyo, Japan: CFI S Plan Fluor ELWD 60×). The reflected IR beam was detected by a two-segmented PIN photodiode. […]

B1: Wild-type ChRmine (M1-R304) (other)
chain: MAHAPGTDQMFYVGTMDGWYLDTKLNSVAIGAHWSCFIVLTITTFYLGYESWTSRGPSKRTSFYAGYQEEQNLALFVNFFAMLSYFGKIVADTLGHNFGDVGPFIIGFGNYRYADYMLTCPMLVYDLLYQLRAPYRVSCSAIIFAILMSGVLAEFYAEGDPRLRNGAYAWYGFGCFWFIFAYSIVMSIVAKQYSRLAQLAQDTGAEHSLHVLKFAVFTFSMLWILFPLVWAICPRGFGWIDDNWTEVAHCVCDIVAKSCYGFALARFRKTYDEELFRLLEQLGHDEDEFQKLELDMRLSSNGER
modifications: all-trans retinal covalently linked at K257 (Schiff base)
notes: Pump-like cation-conducting channelrhodopsin, purified from Sf9 cells in GDN/CHS detergent; It forms a homotrimer; The model covers residues 10-279; also called WT ChRmine; ChRmine WT
Question: Does B1 bind?
Answer: binds
